Experimental data: PMC4754659, “Differential regulation of taurine biosynthesis in rainbow trout and Japanese flounder” (Scientific Reports, 2016)
Substitutions are numbered along the chain they refer to. In names and notes the source's numbering stands.

B1: Japanese flounder CDO (Paralichthys olivaceus) (protein)
chain: MEHTELLKPETLDELIKTLHDIFDSDCINVEEVQGVMESYESKPQEWMKYAKFDQYRYTRNLVDEGNGKFNLMILCWGEGHGSSIHDHTDSHCFMKLLQGQLKETLFEWPDCQSHGDMVQRSQRILQENKVAYINDSLGLHRVENVSHTECAVSLHLYSPPFQACQTFDQRTGHRNTVKMTFWSKYGERTPFETTVSQENN
notes: full-length ORF (201 aa printed, ORF 603 bp), N-terminal 6xHis tag, pET-28a, E. coli BL21(DE3), HisTrap and Superdex 200, iron supplemented; partly Cys-Tyr crosslinked
B2: Japanese flounder CSD (Paralichthys olivaceus) (protein)
chain: MNEPLLDNSEGQLFLTEAFKVIVEEVLCKGTDVKEKVCEWREPEELAALLDLELRENGEPQHQLLQRIRDVAKYSVKTSHPRFFNQQFAGVDYHSLAGRFLTESLNTNLFTYEVAPVFVLMETEVLRGLRQLVGWTEGDGIFCPGGSTSNMYAMNLARYRLFPEVKTQGLWGLPRLTVFTSQESHYSVKKGAGFLGLGTDNVILVKVDDGGRMIPSDLDEKITLTKSQGAVPFLVSCTAGTTVQGAFDPLDHIADVCEKHKLWLHVDAAWGGSVLFSKQHRHLMKGVDRANSVAWNPHKMLVAGLQCSALLLKDTTNLLKQCHCASATYLFQQDKFYDVNLDIGDKSLQCSRKVDCLKLWLMWKAVGSNGLAERVDKAFFHVRYLVEQMKKREGFHLLGQPEFVNVCFWYIPPSLRGKEGDSDYQDRLAKVAPVIKERMVKQGTMMVGYQPLANRVNFFRVIIFSPLISQRDIDFFLDEIERLGNDL
notes: full-length ORF (487 aa printed, ORF 1461 bp), N-terminal 6xHis tag, pET-28a, E. coli BL21(DE3), HisTrap and Superdex 200
B3: Japanese flounder CSD (Paralichthys olivaceus; F110Y/N108S) (protein)
chain: B2 chain with N108S, F110Y
notes: as for B2
B4: rainbow trout CSD (Oncorhynchus mykiss) (protein)
chain: MSHLPRFWNLGWSSFLDWWSNQSVVSEQGPSPLYGQQEMNEPLLDNSEGQLFLTEAFKVIVEEVLCKGTDVKEKVCEWREPEELAALLDLELRENGEPQHQLLQRIRDVAKYSVKTNHPRFFNQLFAGVDYHALTGRFLTEALNTSQYTYEVAPVFVLMEDEVLSKLRSLVGWAEGDGIFCPGGTMSNMYAMNVARYRAFPEVKLKGMWSLPRLAVFTSQQSHYSVMKAAAFQGIGTENVFKVKVDDRGCMIPEDLGETIELAKSQGAVPFFVHATSGTTVQGAFDPLEPIADICDRQGLWMHVDAAWGGSVLFSKEHKHLMRGVERADSVTWNPHKMMLTGLQCSAILLKDTTHLLKHCHSADAKYLFQQDKFYDTSLDTGDKSIQCGRKVDCLKLWLMWKAVGSKGLEERVDRAFTHTRYLVEEMKRREGFELIGKPLFVNVCFWFIPPSLRGKENSPDYNDRLSKVAPVIKERMMKQGTMMLGYQPQGGRVNFFRMIVISPQLSHQDMTFCLNEIERLGSDL
notes: full-length ORF (525 aa, ORF 1575 bp), N-terminal 6xHis tag, pET-28a, E. coli BL21(DE3), HisTrap and Superdex 200
B5: rainbow trout CSD (Oncorhynchus mykiss; S146N/Y148F) (protein)
chain: B4 chain with S146N, Y148F
notes: as for B4
B6: rainbow trout CDO (Oncorhynchus mykiss) (protein)
chain: MDQTELLKPETLDDLIKVLHKIFESDNINVEEVQNIMEAYDSNPQEWMKFAKFDQFRYTRNLVDEGNGKFNLMILCWGEGHGSSIHDHTDSHCFMKLLQGQLKETLFEWPDKKTCNMVQKSQRILQTNQCAYINDSFGLHRVENASHTECSASLHLYSPPFKTCQTFDQRTGHKNTVKMTFWSKFGERTPFETTVSQENN
notes: full-length ORF (200 aa printed, ORF 600 bp), N-terminal 6xHis tag, pET-28a, E. coli BL21(DE3), HisTrap and Superdex 200, iron supplemented; partly Cys-Tyr crosslinked

Assays:
[1] = substrate: N[C@@H](CS)C(=O)O; assay: HPLC of CSA product (OPA derivatised); format: biochemical, Paralichthys olivaceus; conditions: MES 62.5 mM (pH 6.1 given for tissue buffer), 0.3 mM ferrous sulfate, 62.5 μM bathocuproine disulfonate, O2 (air), 37 °C, fit at 0–4 mM, substrate inhibition above 4 mM
[2] = substrate: N[C@@H](CS(=O)O)C(=O)O; assay: HPLC of hypotaurine product (OPA derivatised); format: biochemical, Paralichthys olivaceus; conditions: 100 mM NaH2PO4, 10 μM PLP, 37 °C, 10 min, CSA 0–15 mM, pH not given for assay (enzyme buffer pH 7.4)
[3] = substrate: N[C@@H](CS(=O)O)C(=O)O; assay: HPLC of hypotaurine product (OPA derivatised); format: biochemical, Oncorhynchus mykiss; conditions: 100 mM NaH2PO4, 10 μM PLP, 37 °C, 10 min, CSA 0–15 mM, pH not given for assay (enzyme buffer pH 7.4)
[4] = substrate: N[C@@H](CS)C(=O)O; assay: HPLC of CSA product (OPA derivatised); format: biochemical, Oncorhynchus mykiss; conditions: MES 62.5 mM (pH 6.1 given for tissue buffer), 0.3 mM ferrous sulfate, 62.5 μM bathocuproine disulfonate, O2 (air), 37 °C, fit at 0–4 mM, substrate inhibition above 4 mM

| Protein | Km [2] [µM] | kcat [2] [s⁻¹] | Km [3] [µM] | kcat [3] [s⁻¹] | further results |
| --- | --- | --- | --- | --- | --- |
| B1 |  |  |  |  | Km [1]: 1230 ± 150 µM; kcat [1]: 29.36 ± 1.52 s⁻¹ |
| B2 | 3450 ± 380 | 1.52 ± 0.13 |  |  |  |
| B3 | 1830 ± 170 | 6.26 ± 0.20 |  |  |  |
| B4 |  |  | 2300 ± 240 | 4.72 ± 0.36 |  |
| B5 |  |  | 2730 ± 270 | 1.86 ± 0.07 |  |
| B6 |  |  |  |  | Km [4]: 790 ± 90 µM; kcat [4]: 16.72 ± 0.67 s⁻¹ |
